According to paper PMC10682658, “Revisiting bacterial cytolethal distending toxin structure and function” (Frontiers in Cellular and Infection Microbiology, 2023):

B1: unlabeled Cj-CdtA with the polyhistidine tag removed (natural protein)
chain: CSSKFENVNPLGRSFGEFEDTDPLKLGLEPTFPTNQEIPSLISGADLVPITPITPPLTRTSNSANNNAANGINPRFKDEAFNDVLIFENRPAVSDFLTILGPSGAALTVWALAQGNWIWGYTLIDSKGFGDARVWQLLLYPNDFAMIKNAKTNTCLNAYGNGIVHYPCDASNHAQMWKLIPMSNTAVQIKNLGNGKCIQAPITNLYGDFHKVFKIFTVECAKKDNFDQQWFLTTPPFTAKPLYRQGEVR
notes: source: recombinant, generated and purified as previously described (Eshraghi et al., 2010); polyhistidine removed with biotinylated thrombin
B2: unlabeled Cj-CdtC with the polyhistidine tag removed (natural protein)
chain: TPTGDLKDFTEMVSIRSLETGIFLSAFRDTSKDPIDQNWNIKEIVLSDELKQKDKLADELPFGYVQFTNPKESDLCLAILEDGTFGAKSCQDDLKDGKLETVFSIMPTTTSAVQIRSLVLESDECIVTFFNPNIPIQKRFGIAPCTLDPIFFAEVNELMIITPPLTAATPLE
notes: as for B1

Legend:
[1] = target: T1, NTA-labeled Cj-CdtB (polyhistidine-tagged Cj-CdtB labelled with NTA fluorescent dye) (Campylobacter jejuni, UniProt Q0PC57 1-265, NTA - Atto 647 N dye on the polyhistidine-tagged subunit); assay: MST; NTA dye-labeled polyhistidine-tagged subunit (0.1 μM) with unlabeled subunit without polyhistidine tag (0.02/0.04-20 μM), 1 h at 37°C, read at 37°C; Monolith NT.115; fraction bound fit to log [Cj-CDT subunit] vs response; KD of A + B* called apparent; conditions: both partners purified
T1 construct: source: recombinant, generated and purified as previously described (Eshraghi et al., 2010)

[2] = target: T2, NTA-labeled Cj-CdtA (polyhistidine-tagged Cj-CdtA labelled with NTA fluorescent dye) (Campylobacter jejuni, UniProt A1VXG4 20-268, NTA - Atto 647 N dye on the polyhistidine-tagged subunit); assay: as above; conditions: both partners purified
T2 construct: source: recombinant, generated and purified as previously described (Eshraghi et al., 2010)
T2 sequence: B1 chain

| Binder | Kd [1] [nM] | first concentration of titrant yielding detectable signal above background [1] [µM] | Kd [2] [nM] | first concentration of titrant yielding detectable signal above background [2] [µM] |
| --- | --- | --- | --- | --- |
| B1 | > 20000 | 2 | – | – |
| B2 | 480 ± 100 | 0.15 | 650 ± 100 | 0.31 |
